In PMC10870172 one finds Kd data, which are given here for one substance.

As usually defined, the Kd is the equilibrium constant for the complex coming apart.

Holding throughout (experiment): other fluorescence titration; single-molecule FRET on freely diffusing ClpB hexamers (1:100 labeled:unlabeled, ~50 pM labeled, ~5 nM total) with increasing concentrations of unlabeled κ-casein; ratio of H2MM-derived state 1 population with and without κ-casein fitted to a simple binding isotherm; 25 mM HEPES, 25 mM KCl, 10 mM MgCl2, 2 mM ATP, 0.01% Tween 20, pH 8, 22°C

For experiment [1], the target named is ClpB PL2 BB construct A281C-S359C with E271A/E668A, hexamer with one labeled protomer (Thermus thermophilus) (UniProt Q9RA63).
Experiment [2] addresses ClpB PL3 construct S359C-Y646C (wt), hexamer with one labeled protomer (Thermus thermophilus) (UniProt Q9RA63).
Experiment [3] has as its target ClpB PL2 construct A281C-S359C (wt), hexamer with one labeled protomer (Thermus thermophilus) (UniProt Q9RA63).
The target of experiment [4] is ClpB PL1 construct S236C-S359C (wt), hexamer with one labeled protomer (Thermus thermophilus) (UniProt Q9RA63).

With “κ-casein (from UniProt P02668 22-190) (natural protein)”, the dissociation constant (Kd) in experiment [1] worked out at 300 nM; in experiment [2], 900 nM; in experiment [3], 11300 nM; in experiment [4], 2900 nM.
